The target of this experiment is Acinetobacter baumannii alanine racemase (Acinetobacter baumannii strain NCTC13302) (UniProt B0VNF6). Kind of experiment: crystal structure; sitting drops, 100 mM MES pH 6.0, 200 mM CaCl2, 20% PEG 6000; space group P2(1), two monomers in the asymmetric unit; 1.9 Å; interface analysed with PISA.

As a reminder, the stoichiometry N is the number of molecules, sites or subunits per partner or assembly.

In turn, “Acinetobacter baumannii alanine racemase (from UniProt B0VNF6 1-367) (enzyme)” returned a stoichiometry N of 2.

For the origin of these results see paper PMC4157418.
